Experiment [1] deals with Escherichia coli MG1655 thioredoxin reductase TrxB (Escherichia coli MG1655) (UniProt P0A9P4).
The target of experiment [2] is Bacillus subtilis 168 thioredoxin reductase TrxB (Bacillus subtilis 168) (UniProt P80880).
Chain of UniProt P80880 (P80880 whole entry): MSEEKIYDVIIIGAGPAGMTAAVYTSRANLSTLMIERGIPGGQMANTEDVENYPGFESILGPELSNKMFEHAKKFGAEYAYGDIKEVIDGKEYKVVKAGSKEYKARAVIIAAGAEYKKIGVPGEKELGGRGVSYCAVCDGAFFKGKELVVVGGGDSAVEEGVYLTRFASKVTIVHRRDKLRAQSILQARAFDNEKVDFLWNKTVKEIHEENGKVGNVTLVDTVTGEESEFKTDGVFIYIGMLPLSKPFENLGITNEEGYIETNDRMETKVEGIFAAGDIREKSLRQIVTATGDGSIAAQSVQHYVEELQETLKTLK

Chain of UniProt P0A9P4 (P0A9P4 whole entry): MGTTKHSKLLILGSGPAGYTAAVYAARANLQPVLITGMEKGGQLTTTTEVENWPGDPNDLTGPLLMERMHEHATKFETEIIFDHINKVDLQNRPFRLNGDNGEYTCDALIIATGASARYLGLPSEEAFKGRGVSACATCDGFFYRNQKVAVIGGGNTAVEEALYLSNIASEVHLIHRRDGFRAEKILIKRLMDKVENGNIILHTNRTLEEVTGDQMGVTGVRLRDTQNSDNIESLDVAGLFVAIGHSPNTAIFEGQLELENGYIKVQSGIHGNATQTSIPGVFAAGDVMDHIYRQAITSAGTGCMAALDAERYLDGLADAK

“Escherichia coli K-12 MG1655 thioredoxin TrxA (from UniProt P0AA25 1-109) (natural protein)”: the Km of TrxB for its substrate TrxA; DTNB reduction assay (TNB release, A412), 50 nM ecTrxB, 0 to 6 μM ecTrxA, NADPH, no auranofin in experiment [1] was found to be 1.35 µM.

B1: Bacillus subtilis 168 thioredoxin TrxA (natural protein)
chain: MAIVKATDQSFSAETSEGVVLADFWAPWCGPCKMIAPVLEELDQEMGDKLKIVKIDVDENQETAGKYGVMSIPTLLVLKDGEVVETSVGFKPKEALQELVNKHL
As for B1, the Km of TrxB for its substrate TrxA; DTNB reduction assay (TNB release, A412), 50 nM bsTrxB, 0 to 6 μM bsTrxA, NADPH, no auranofin in experiment [2] worked out at 1.72 µM.

The values are drawn from article PMC11875817.
